The test addresses T1, 寨卡病毒包膜蛋白的结构域III (ZIKV-EDⅢ抗原) (Zika virus (strain NCBI KU740184.2)).
T1 construct: domain: 结构域III (EDIII); also called ZIKV-EDIII; ZIKV EDIII
In words: SPR (OpenSPR, COOH chip), ZIKV-EDIII immobilised, nanobody as analyte, 1:1 model.

Results on 1 molecule are retold here after patent CN116063469A (UNIV ZHONGSHAN, dated 2023).

A word on the Kd: it is the constant that tells how readily two partners part at equilibrium. A high value points to weaker binding.

B1: 纳米抗体Nb-E5 (VHH)
VHH: SDSEVNQEAKPEVKPEVKPETHINLKVSDGSSEIFFKIKKTTPLRRLMEAFAKRQGKEMDSLRFLYDGIRIQADQTPEDLDMEDNDIIEAHREQIGGMAVQLVESGGGLVQPGGSLRLSCKVSGRPFTTYALGWFRQAPGKEREFLTVGAWRGQIFTAESVRGRFTISLDTAKNTFDLQMNSLNIEDTAVYYCAAGSRSSNTPQADPGSFDYWGQGTQVTVSSGAR
notes: no removal of the tag is told, and detection used anti-SMT3 / anti-His antibodies; From a naive alpaca phage library; not shown: 6×His tag at the N-terminus of SUMO (pET-28a-SUMO vector)
Consider B1, for which the equilibrium dissociation constant (Kd) was found to be 8.22 nM.
